Assay results: patent US20040176301A1 (CYCLACEL, published 2004)
Like-named read-outs stand apart in the source and are kept apart here. Each block holds one binder with its values, some of them ahead of it. Numbered stars: 1 amine (or outer) side, 2 acyl side, 3 side chain; on linkers, the order of the positions; unused ones are H or OH. Square brackets hold non-standard residues; d marks the D form. Phe(3R-OH) = O=C([C@@H](N[*:1])[C@H](O[*:3])c1ccccc1)[*:2]; Phe(4-F) = N[C@@H](Cc1ccc(F)cc1)C(=O)O; 1Nal = N[C@@H](Cc1cccc2ccccc12)C(=O)O; Cha = N[C@@H](CC1CCCCC1)C(=O)O; dPsa = D-O-acetylphenylserine; Phg = N[C@H](C(=O)O)c1ccccc1; Tle = CC(C)(C)[C@H](N)C(=O)O; Psa = O-acetylphenylserine; Nle = CCCC[C@H](N)C(=O)O; Nva = CCC[C@H](N)C(=O)O; dPse = D-phenylserine

Experiments:
Test in all cases: cell-based or functional assay
[1] = target: T1, CDK2/cyclin A (UniProt P24941 1-298; P20248 1-432)
[2] = target: T1, CDK2/cyclin A; remark: listed apart in the source
[3] = target: T1, CDK2/cyclin A; remark: listed apart in the source
[4] = target: T1, CDK2/cyclin A; remark: listed apart in the source
[5] = target: T1, CDK2/cyclin A; remark: listed apart in the source

B1: H-His-Ala-Lys-Arg-Arg-Leu-1Nap-Phe-NH2 (peptide)
peptide: H-HAKRRL[1Nal]F-NH2
SMILES: CC(C)C[C@H](NC(=O)[C@H](CCCNC(=N)N)NC(=O)[C@H](CCCNC(=N)N)NC(=O)[C@H](CCCCN)NC(=O)[C@H](C)NC(=O)[C@@H](N)Cc1c[nH]cn1)C(=O)N[C@@H](Cc1cccc2ccccc12)C(=O)N[C@@H](Cc1ccccc1)C(N)=O
Relative activity, Kinase Inhibition (CDK2/cyclin A kinase assay, pRb substrate, [ATP] = 100 µM) [2]: 0.5 relative to H-His-Ala-Lys-Arg-Arg-Leu-Ile-Phe-NH2 (=1)

Binder: H-HAKRRLLF-NH2 [H-His-Ala-Lys-Arg-Arg-Leu-Leu-Phe-NH2]
Relative activity, Kinase Inhibition (CDK2/cyclin A kinase assay, pRb substrate, [ATP] = 100 µM) [2]: 1.2 relative to H-His-Ala-Lys-Arg-Arg-Leu-Ile-Phe-NH2 (=1)

B3: H-Ala-Ala-Lys-Arg-Arg-Leu-Ile-pFPhe-NH2 (peptide)
peptide: H-AAKRRLI[Phe(4-F)]-NH2
SMILES: CC[C@H](C)[C@H](NC(=O)[C@H](CC(C)C)NC(=O)[C@H](CCCNC(=N)N)NC(=O)[C@H](CCCNC(=N)N)NC(=O)[C@H](CCCCN)NC(=O)[C@H](C)NC(=O)[C@H](C)N)C(=O)N[C@@H](Cc1ccc(F)cc1)C(N)=O
Relative activity, Kinase Inhibition (CDK2/cyclin A kinase assay, pRb substrate, [ATP] = 100 µM) [4]: 80 relative to H-His-Ala-Lys-Arg-Arg-Leu-Ile-Phe-NH2 (=1)

B5: H-His-Ala-Lys-Arg-Arg-Cha-Ile-Phe-NH2 (peptide)
peptide: H-HAKRR[Cha]IF-NH2
SMILES: CC[C@H](C)[C@H](NC(=O)[C@H](CC1CCCCC1)NC(=O)[C@H](CCCNC(=N)N)NC(=O)[C@H](CCCNC(=N)N)NC(=O)[C@H](CCCCN)NC(=O)[C@H](C)NC(=O)[C@@H](N)Cc1c[nH]cn1)C(=O)N[C@@H](Cc1ccccc1)C(N)=O
Relative activity, Kinase Inhibition (CDK2/cyclin A kinase assay, pRb substrate, [ATP] = 100 µM) [5]: < 0.1 relative to H-His-Ala-Lys-Arg-Arg-Leu-Ile-Phe-NH2 (=1)

B6: H-His-Ala-Lys-Arg-Arg-Leu-Nle-Phe-NH2 (peptide)
peptide: H-HAKRRL[Nle]F-NH2
SMILES: CCCC[C@H](NC(=O)[C@H](CC(C)C)NC(=O)[C@H](CCCNC(=N)N)NC(=O)[C@H](CCCNC(=N)N)NC(=O)[C@H](CCCCN)NC(=O)[C@H](C)NC(=O)[C@@H](N)Cc1c[nH]cn1)C(=O)N[C@@H](Cc1ccccc1)C(N)=O
Relative activity, Kinase Inhibition (CDK2/cyclin A kinase assay, pRb substrate, [ATP] = 100 µM) [2]: 0.4 relative to H-His-Ala-Lys-Arg-Arg-Leu-Ile-Phe-NH2 (=1)

Binder: H-HAKRRLI[Phe(3R-OH)]-OH [H-His-Ala-Lys-Arg-Arg-Leu-Ile-L-Pse-OH]
Relative activity, Kinase Inhibition (CDK2/cyclin A kinase assay, pRb substrate, [ATP] = 100 µM) [1]: < 0.1 relative to H-His-Ala-Lys-Arg-Arg-Leu-Ile-Phe-NH2 (=1)

B7: H-His-Ala-Lys-Arg-Arg-Leu-Cha-Phe-NH2 (peptide)
peptide: H-HAKRRL[Cha]F-NH2
SMILES: CC(C)C[C@H](NC(=O)[C@H](CCCNC(=N)N)NC(=O)[C@H](CCCNC(=N)N)NC(=O)[C@H](CCCCN)NC(=O)[C@H](C)NC(=O)[C@@H](N)Cc1c[nH]cn1)C(=O)N[C@@H](CC1CCCCC1)C(=O)N[C@@H](Cc1ccccc1)C(N)=O
Relative activity, Kinase Inhibition (CDK2/cyclin A kinase assay, pRb substrate, [ATP] = 100 µM) [2]: 0.3 relative to H-His-Ala-Lys-Arg-Arg-Leu-Ile-Phe-NH2 (=1)

Further lines, results first:

Relative activity, Kinase Inhibition (CDK2/cyclin A kinase assay, pRb substrate, [ATP] = 100 µM) [1]: < 0.1 relative to H-His-Ala-Lys-Arg-Arg-Leu-Ile-Phe-NH2 (=1)
Binder: H-HSKRRLI[dPse]-OH [H-His-Ser-Lys-Arg-Arg-Leu-Ile-D-Pse-OH]

Relative activity, Kinase Inhibition (CDK2/cyclin A kinase assay, pRb substrate, [ATP] = 100 µM) [3]: 0.2 relative to H-His-Ala-Lys-Arg-Arg-Leu-Ile-Phe-NH2 (=1)
B2: H-His-Bug-Lys-Arg-Arg-Leu-Ile-Phe-NH2 (peptide)
peptide: H-H[Tle]KRRLIF-NH2
SMILES: CC[C@H](C)[C@H](NC(=O)[C@H](CC(C)C)NC(=O)[C@H](CCCNC(=N)N)NC(=O)[C@H](CCCNC(=N)N)NC(=O)[C@H](CCCCN)NC(=O)[C@@H](NC(=O)[C@@H](N)Cc1c[nH]cn1)C(C)(C)C)C(=O)N[C@@H](Cc1ccccc1)C(N)=O

Relative activity, Kinase Inhibition (CDK2/cyclin A kinase assay, pRb substrate, [ATP] = 100 µM) [1]: 22 relative to H-His-Ala-Lys-Arg-Arg-Leu-Ile-Phe-NH2 (=1)
Binder: H-HAKRRLI[Psa]-OH [H-His-Ala-Lys-Arg-Arg-Leu-Ile-[L-Psa]-OH]

Relative activity, Kinase Inhibition (CDK2/cyclin A kinase assay, pRb substrate, [ATP] = 100 µM) [2]: 0.2 relative to H-His-Ala-Lys-Arg-Arg-Leu-Ile-Phe-NH2 (=1)
B4: H-His-Ala-Lys-Arg-Arg-Leu-Nva-Phe-NH2 (peptide)
peptide: H-HAKRRL[Nva]F-NH2
SMILES: CCC[C@H](NC(=O)[C@H](CC(C)C)NC(=O)[C@H](CCCNC(=N)N)NC(=O)[C@H](CCCNC(=N)N)NC(=O)[C@H](CCCCN)NC(=O)[C@H](C)NC(=O)[C@@H](N)Cc1c[nH]cn1)C(=O)N[C@@H](Cc1ccccc1)C(N)=O

Relative activity, Kinase Inhibition (CDK2/cyclin A kinase assay, pRb substrate, [ATP] = 100 µM) [3]: 0.5 relative to H-His-Ala-Lys-Arg-Arg-Leu-Ile-Phe-NH2 (=1)
Binder: H-HFKRRLIF-NH2 [H-His-Phe-Lys-Arg-Arg-Leu-Ile-Phe-NH2]

Relative activity, Kinase Inhibition (CDK2/cyclin A kinase assay, pRb substrate, [ATP] = 100 µM) [5]: < 0.1 relative to H-His-Ala-Lys-Arg-Arg-Leu-Ile-Phe-NH2 (=1)
B8: H-His-Ala-Lys-Arg-Arg-Nva-Ile-Phe-NH2 (peptide)
peptide: H-HAKRR[Nva]IF-NH2
SMILES: CCC[C@H](NC(=O)[C@H](CCCNC(=N)N)NC(=O)[C@H](CCCNC(=N)N)NC(=O)[C@H](CCCCN)NC(=O)[C@H](C)NC(=O)[C@@H](N)Cc1c[nH]cn1)C(=O)N[C@H](C(=O)N[C@@H](Cc1ccccc1)C(N)=O)[C@@H](C)CC

Relative activity, Kinase Inhibition (CDK2/cyclin A kinase assay, pRb substrate, [ATP] = 100 µM) [3]: < 0.1 relative to H-His-Ala-Lys-Arg-Arg-Leu-Ile-Phe-NH2 (=1)
Binder: H-H[Phg]KRRLIF-NH2 (also: Phg racemic, mixture of diastereomers) [H-His-Phg-Lys-Arg-Arg-Leu-Ile-Phe-NH2]

Relative activity, Kinase Inhibition (CDK2/cyclin A kinase assay, pRb substrate, [ATP] = 100 µM) [1]: < 0.1 relative to H-His-Ala-Lys-Arg-Arg-Leu-Ile-Phe-NH2 (=1)
Binder: H-HSKRRLI[dPsa]-OH [H-His-Ser-Lys-Arg-Arg-Leu-Ile-D-Psa-OH]

Relative activity, Kinase Inhibition (CDK2/cyclin A kinase assay, pRb substrate, [ATP] = 100 µM) [3]: 0.5 relative to H-His-Ala-Lys-Arg-Arg-Leu-Ile-Phe-NH2 (=1)
Binder: H-HIKRRLIF-NH2 [H-His-Ile-Lys-Arg-Arg-Leu-Ile-Phe-NH2]

Relative activity, Kinase Inhibition (CDK2/cyclin A kinase assay, pRb substrate, [ATP] = 100 µM) [2]: 0.8 relative to H-His-Ala-Lys-Arg-Arg-Leu-Ile-Phe-NH2 (=1)
Binder: H-HAKRRLVF-NH2 [H-His-Ala-Lys-Arg-Arg-Leu-Val-Phe-NH2]
